In patent US20080118529:

T1: recombinant human β2-glycoprotein I (made in insect cells), P02749
T1 chain: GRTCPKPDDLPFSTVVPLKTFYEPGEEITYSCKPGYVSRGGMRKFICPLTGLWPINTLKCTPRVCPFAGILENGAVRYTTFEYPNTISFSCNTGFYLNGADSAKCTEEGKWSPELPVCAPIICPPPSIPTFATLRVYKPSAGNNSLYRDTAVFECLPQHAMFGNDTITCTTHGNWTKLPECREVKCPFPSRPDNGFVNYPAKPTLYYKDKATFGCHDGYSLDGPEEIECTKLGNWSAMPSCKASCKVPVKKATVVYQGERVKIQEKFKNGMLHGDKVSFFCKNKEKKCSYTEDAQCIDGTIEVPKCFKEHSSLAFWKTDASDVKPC

T2: Amyloid-like misfolded OVA (DOVA), obtained by cyclic thermal misfolding, P01012
T2 chain: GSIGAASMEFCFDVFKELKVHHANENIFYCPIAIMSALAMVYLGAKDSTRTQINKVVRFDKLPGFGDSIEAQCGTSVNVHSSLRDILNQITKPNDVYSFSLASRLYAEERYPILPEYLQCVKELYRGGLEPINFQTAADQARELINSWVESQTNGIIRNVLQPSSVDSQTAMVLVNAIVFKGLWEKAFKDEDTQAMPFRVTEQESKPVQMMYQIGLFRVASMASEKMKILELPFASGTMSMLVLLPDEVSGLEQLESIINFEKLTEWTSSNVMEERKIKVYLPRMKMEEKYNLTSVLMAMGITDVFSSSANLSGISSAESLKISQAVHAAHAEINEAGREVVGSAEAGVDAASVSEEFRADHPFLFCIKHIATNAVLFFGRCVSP

T3: human β2-Glycoprotein I pre-incubated with cardiolipin vesicles (CL-β2gpi), P02749
T3 chain: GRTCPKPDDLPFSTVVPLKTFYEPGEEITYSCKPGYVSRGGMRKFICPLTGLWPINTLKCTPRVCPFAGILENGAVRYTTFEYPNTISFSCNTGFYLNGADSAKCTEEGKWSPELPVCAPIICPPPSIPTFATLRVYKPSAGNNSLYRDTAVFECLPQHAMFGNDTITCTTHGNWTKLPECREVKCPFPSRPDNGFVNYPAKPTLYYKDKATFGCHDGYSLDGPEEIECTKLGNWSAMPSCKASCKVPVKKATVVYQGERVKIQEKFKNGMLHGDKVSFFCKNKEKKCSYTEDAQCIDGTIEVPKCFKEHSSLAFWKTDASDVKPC

T4: Ovalbumin (chicken egg albumin, OVA, Sigma A5503), carefully dissolved, P01012
T4 chain: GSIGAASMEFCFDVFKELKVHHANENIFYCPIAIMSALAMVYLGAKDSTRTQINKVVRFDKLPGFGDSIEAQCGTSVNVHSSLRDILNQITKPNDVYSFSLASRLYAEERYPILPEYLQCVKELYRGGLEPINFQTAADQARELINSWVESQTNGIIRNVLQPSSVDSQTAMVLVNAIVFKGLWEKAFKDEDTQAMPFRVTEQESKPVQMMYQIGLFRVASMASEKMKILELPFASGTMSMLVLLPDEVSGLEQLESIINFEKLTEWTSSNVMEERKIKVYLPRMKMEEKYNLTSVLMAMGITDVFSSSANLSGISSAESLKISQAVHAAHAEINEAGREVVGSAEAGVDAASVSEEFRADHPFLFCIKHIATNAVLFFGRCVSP

T5: β2-glycoprotein I purified from fresh human plasma, P02749
T5 chain: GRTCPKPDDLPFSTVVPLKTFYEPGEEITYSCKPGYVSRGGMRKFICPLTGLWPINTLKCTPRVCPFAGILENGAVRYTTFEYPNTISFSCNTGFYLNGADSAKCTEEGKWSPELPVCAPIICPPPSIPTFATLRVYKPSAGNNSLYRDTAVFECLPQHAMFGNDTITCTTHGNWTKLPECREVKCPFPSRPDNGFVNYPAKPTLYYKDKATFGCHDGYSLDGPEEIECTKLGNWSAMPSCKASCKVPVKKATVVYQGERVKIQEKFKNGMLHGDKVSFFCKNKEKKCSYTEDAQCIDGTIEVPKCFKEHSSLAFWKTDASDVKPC

T6: laminin α1-chain (2097-2108) amyloid core peptide
T6 chain: AASIKVAVSADR

T7: amyloid fragment of transthyretin
T7 chain: YTIAALLSPYS

T8: amyloid fibrin peptide FP13 K157G, P02671
T8 chain: KVQHIQLLQGNVR

T9: mouse non-amyloidogenic IAPP (20-29) core
T9 chain: SNNLGPVLPP

T10: non-amyloid fragment FP10 of human fibrin α-chain (148-157)
T10 chain: KRLEVDIDIK


Columns and labels:
[1] = target: T1, recombinant human β2-glycoprotein I …
[2] = target: T2, Amyloid-like misfolded OVA (DOVA), …
[3] = target: heat/acid-denatured human glucagon (Glucagen, Novo Nordisk), P01275
[4] = target: T3, human β2-Glycoprotein I pre-incubated …
[5] = target: native human glucagon (freshly dissolved), P01275
[6] = target: T4, Ovalbumin (chicken egg albumin, OVA, …)
[7] = target: Native murine serum albumin (nMSA, #126674, Calbiochem), P07724
[8] = target: T5, β2-glycoprotein I purified from fresh …
[9] = target: T6, laminin α1-chain (2097-2108) amyloid …
[10] = target: T7, amyloid fragment of transthyretin
[11] = target: albumin (ICN, 160069), P02769
[12] = target: T8, amyloid fibrin peptide FP13 K157G, …
[13] = target: recombinant human collagen XVIII fragment endostatin (Entremed, Inc), P39060
[14] = target: T9, mouse non-amyloidogenic IAPP (20-29) …
[15] = target: Glycated haemoglobin (Hb-AGE)
[16] = target: T10, non-amyloid fragment FP10 of human …

Sequence of heat/acid-denatured human glucagon (Glucagen, Novo Nordisk), P01275 (P01275 53-81): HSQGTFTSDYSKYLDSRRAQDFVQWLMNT
Sequence of recombinant human collagen XVIII fragment endostatin (Entremed, Inc), P39060 (P39060 whole entry, looked up, the tested form may be a part): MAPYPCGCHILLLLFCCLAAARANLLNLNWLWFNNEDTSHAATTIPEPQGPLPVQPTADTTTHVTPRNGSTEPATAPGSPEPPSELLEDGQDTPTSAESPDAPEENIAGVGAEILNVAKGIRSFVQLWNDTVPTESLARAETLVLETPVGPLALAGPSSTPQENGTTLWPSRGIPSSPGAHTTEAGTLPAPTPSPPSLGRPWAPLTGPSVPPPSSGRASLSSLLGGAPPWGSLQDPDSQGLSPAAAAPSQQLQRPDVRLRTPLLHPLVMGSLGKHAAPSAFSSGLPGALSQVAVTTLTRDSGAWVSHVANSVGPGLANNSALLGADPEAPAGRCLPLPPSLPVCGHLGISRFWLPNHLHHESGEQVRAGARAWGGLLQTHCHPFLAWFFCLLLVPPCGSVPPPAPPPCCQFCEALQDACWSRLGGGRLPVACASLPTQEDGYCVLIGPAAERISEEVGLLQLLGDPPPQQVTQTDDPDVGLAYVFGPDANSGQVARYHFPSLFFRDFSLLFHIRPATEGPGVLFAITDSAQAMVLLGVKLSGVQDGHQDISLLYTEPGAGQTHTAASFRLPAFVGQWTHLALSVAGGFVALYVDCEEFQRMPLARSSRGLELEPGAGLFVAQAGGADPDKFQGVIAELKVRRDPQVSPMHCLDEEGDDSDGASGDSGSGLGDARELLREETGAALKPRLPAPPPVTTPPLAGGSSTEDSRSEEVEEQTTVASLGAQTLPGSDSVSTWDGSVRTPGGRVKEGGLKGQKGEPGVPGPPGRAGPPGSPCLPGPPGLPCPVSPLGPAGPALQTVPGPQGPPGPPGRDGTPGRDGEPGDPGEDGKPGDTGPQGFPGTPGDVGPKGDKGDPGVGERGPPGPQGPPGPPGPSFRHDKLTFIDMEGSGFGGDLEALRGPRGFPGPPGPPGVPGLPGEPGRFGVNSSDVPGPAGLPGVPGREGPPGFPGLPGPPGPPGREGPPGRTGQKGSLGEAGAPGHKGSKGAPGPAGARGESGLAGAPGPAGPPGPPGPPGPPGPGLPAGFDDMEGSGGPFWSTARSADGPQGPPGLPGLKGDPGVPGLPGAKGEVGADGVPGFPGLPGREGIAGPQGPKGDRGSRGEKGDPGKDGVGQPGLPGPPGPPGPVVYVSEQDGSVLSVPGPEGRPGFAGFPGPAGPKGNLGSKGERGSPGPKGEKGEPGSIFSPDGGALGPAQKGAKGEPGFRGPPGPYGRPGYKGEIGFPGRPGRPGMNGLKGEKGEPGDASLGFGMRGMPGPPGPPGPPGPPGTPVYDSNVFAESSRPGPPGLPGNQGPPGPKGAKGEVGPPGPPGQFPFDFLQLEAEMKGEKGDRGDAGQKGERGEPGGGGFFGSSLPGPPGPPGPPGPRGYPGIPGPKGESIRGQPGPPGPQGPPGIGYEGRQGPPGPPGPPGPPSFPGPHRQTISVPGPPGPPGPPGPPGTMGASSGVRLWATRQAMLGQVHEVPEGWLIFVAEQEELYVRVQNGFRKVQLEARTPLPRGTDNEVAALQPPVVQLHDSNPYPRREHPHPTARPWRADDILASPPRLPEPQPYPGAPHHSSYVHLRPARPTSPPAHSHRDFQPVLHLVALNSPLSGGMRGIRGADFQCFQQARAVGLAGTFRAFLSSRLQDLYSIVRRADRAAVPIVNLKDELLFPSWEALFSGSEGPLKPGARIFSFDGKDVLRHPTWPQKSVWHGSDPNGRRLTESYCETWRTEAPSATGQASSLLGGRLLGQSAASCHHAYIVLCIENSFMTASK
Sequence of albumin (ICN, 160069), P02769 (P02769 25-607): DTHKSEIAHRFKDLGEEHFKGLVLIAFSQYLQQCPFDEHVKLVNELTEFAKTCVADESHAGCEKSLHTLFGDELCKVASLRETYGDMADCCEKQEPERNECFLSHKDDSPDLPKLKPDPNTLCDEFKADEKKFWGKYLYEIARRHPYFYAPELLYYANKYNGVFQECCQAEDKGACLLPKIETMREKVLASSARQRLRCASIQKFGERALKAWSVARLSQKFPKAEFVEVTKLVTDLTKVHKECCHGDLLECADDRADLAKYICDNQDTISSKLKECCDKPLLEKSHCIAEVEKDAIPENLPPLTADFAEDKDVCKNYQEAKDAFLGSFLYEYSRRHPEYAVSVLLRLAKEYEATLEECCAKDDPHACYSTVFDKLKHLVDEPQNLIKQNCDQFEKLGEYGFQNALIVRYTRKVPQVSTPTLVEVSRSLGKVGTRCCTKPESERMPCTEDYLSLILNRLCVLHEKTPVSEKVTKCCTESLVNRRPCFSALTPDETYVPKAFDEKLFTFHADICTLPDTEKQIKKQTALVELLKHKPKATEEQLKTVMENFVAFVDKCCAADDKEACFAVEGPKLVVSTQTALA
Sequence of Native murine serum albumin (nMSA, #126674, Calbiochem), P07724 (P07724 25-608): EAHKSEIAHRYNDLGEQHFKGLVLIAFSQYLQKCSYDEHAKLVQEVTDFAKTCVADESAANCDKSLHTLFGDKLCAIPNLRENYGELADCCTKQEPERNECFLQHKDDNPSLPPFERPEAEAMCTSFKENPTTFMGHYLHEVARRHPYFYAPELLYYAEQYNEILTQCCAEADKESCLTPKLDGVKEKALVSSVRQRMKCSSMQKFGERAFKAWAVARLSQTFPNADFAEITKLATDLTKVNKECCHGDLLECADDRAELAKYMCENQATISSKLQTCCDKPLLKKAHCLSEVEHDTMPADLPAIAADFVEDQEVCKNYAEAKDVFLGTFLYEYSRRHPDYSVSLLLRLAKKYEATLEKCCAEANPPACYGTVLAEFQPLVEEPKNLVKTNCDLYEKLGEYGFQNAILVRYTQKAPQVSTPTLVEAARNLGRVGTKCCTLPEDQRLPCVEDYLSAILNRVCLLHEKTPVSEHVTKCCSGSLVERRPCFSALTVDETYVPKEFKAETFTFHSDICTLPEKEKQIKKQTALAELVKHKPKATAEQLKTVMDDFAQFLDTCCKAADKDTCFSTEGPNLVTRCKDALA

Row | Protein | tPA-mediated conversion of Plg to plasmin (substrate S-2251) [1] | tPA/plasminogen activation assay [2] | Plg-activation assay [3] | chromogenic tPA/plasminogen activation assay with a plasmin substrate [4] | Plg-activation assay [5] | tPA/plasminogen activation assay [6] | Plg-activation assay [7] | tPA-mediated conversion of Plg to plasmin (substrate S-2251) [8] | activation of factor XII, detected by the conversion of Chromozym-PK [9] | activation of factor XII, detected by the conversion of Chromozym-PK [10] | factor XII and subsequent prekallikrein activity (Chromozym-PK) [11] | auto-activation of purified factor XII, substrate S-2222 [12] | factor XII and subsequent prekallikrein activity (Chromozym-PK) [13] | activation of factor XII, detected by the conversion of Chromozym-PK [14] | auto-activation of purified factor XII, substrate S-2222 [15] | activation of factor XII, detected by the conversion of Chromozym-PK [16]
1 | Tissue-type plasminogen activator (tPA, Actilyse, Boehringer-Ingelheim) (protein) SYQVICRDEKTQMIYQQHQSWLRPVLRSNRVEYCWCNSGRAQCHSVPVKSCSEPRCFNGGTCQQALYFSDFVCQCPEGFAGKCCEIDTRATCYEDQGISYRGTWSTAESGAECTNWNSSALAQKPYSGRRPDAIRLGLGNHNYCRNPDRDSKPWCYVFKAGKYSSEFCSTPACSEGNSDCYFGNGSAYRGTHSLTESGASCLPWNSMILIGKVYTAQNPSAQALGLGKHNYCRNPDGDAKPWCHVLKNRRLTWEYCDVPSCSTCGLRQYSQPQFRIKGGLFADIASHPWQAAIFAKHRRSPGERFLCGGILISSCWILSAAHCFQERFPPHHLTVILGRTYRVVPGEEEQKFEVEKYIVHKEFDDDTYDNDIALLQLKSDSSRCAQESSVVRTVCLPPADLQLPDWTECELSGYGKHEALSPFYSERLKEAHVRLYPSSRCTSQHLLNRTVTDNMLCAGDTRSGGPQANLHDACQGDSGGPLVCLNDGRMTLVGIISWGLGCGQKDVPGVYTKVTNYLDWIRDNMRP | Recombinant β2GPI, but not β2GPI purified from fresh plasma stimulate tPA-mediated conversion of Plg to plasmin | After cyclic thermal misfolding, however, signals representative for crossbeta structure are far more pronounced with denatured OVA | In this way, a potent activator of tPA was obtained | Exposure of human β2gpi to cardiolipin renders the mixture with tPA/plasminogen activating properties | at high glucagon concentration, also native glucagon has some tPA activating potential | OVA displays characteristics that are a hallmark for the presence of at least a fraction of the molecules with crossbeta structure, as shown by ... the enhanced activation of tPA and plasminogen | also native albumin enhanced ThT fluorescence to some extent, but this was not reflected by stimulation of tPA activation | Recombinant β2GPI, but not β2GPI purified from fresh plasma stimulate tPA-mediated conversion of Plg to plasmin | – | – | – | – | – | – | – | –
2 | human factor XII from plasma (Calbiochem, #233490) (protein) IPPWEAPKEHKYKAEEHTVVLTVTGEPCHFPFQYHRQLYHKCTHKGRPGPQPWCATTPNFDQDQRWGYCLEPKKVKDHCSKHSPCQKGGTCVNMPSGPHCLCPQHLTGNHCQKEKCFEPQLLRFFHKNEIWYRTEQAAVARCQCKGPDAHCQRLASQACRTNPCLHGGRCLEVEGHRLCHCPVGYTGAFCDVDTKASCYDGRGLSYRGLARTTLSGAPCQPWASEATYRNVTAEQARNWGLGGHAFCRNPDNDIRPWCFVLNRDRLSWEYCDLAQCQTPTQAAPPTPVSPRLHVPLMPAQPAPPKPQPTTRTPPQSQTPGALPAKREQPPSLTRNGPLSCGQRLRKSLSSMTRVVGGLVALRGAHPYIAALYWGHSFCAGSLIAPCWVLTAAHCLQDRPAPEDLTVVLGQERRNHSCEPCQTLAVRSYRLHEAFSPVSYQHDLALLRLQEDADGSCALLSPYVQPVCLPSGAARPSETTLCQVAGWGHQFEGAEEYASFLQEAQVPFLSLERCSAPDVHGSSILPGMLCAGFLEGGTDACQGDSGGPLVCEDQAAERRLTLQGIISWGSGCGDRNKPGVYTDVAYYLAWIREHTVS | – | – | – | – | – | – | – | – | cross-β structure conformation rich peptides laminin (LAM12) and transthyretin (TTR11) stimulate factor XII activation, to a similar extent as kaolin | cross-β structure conformation rich peptides laminin (LAM12) and transthyretin (TTR11) stimulate factor XII activation, to a similar extent as kaolin | Neither albumin or endostatin alone, nor kaolin or DXS500k alone are efficient activators of factor XII, whereas combinations of adjuvant and protein cofactor results in factor XII and subsequent prekallikrein activity | All three amyloid-like aggregates are able to induce factor XII auto-activation. FP13 K157G and Hb-AGE have a potency to induce auto-activation that is similar to the established surface activator DXS500k | Neither albumin or endostatin alone, nor kaolin or DXS500k alone are efficient activators of factor XII, whereas combinations of adjuvant and protein cofactor results in factor XII and subsequent prekallikrein activity | non-amyloid controls fibrin fragment FP10 and non-amyloid murine islet amyloid polypeptide mIAPP do not activate factor XII | All three amyloid-like aggregates are able to induce factor XII auto-activation. FP13 K157G and Hb-AGE have a potency to induce auto-activation that is similar to the established surface activator DXS500k | non-amyloid controls fibrin fragment FP10 and non-amyloid murine islet amyloid polypeptide mIAPP do not activate factor XII
